These results are taken from the RNAGym collection of RNA variant scans (doi:10.1073/pnas.2313332121).

Variants at the floor of the assay were thinned out. Where only a bound is given, the exact number is not on record here.

B1: TPR 5TU (parent)
chain: GGAUCUUCUCGAUCUAACAAAAAAGACAAAUCUGCCACAAAGCUUGAGAGCAUCUUCGGAUGCAGAGGCGGCAGCCUUCGGUGGCGCGAUAGCGCCAACGUUCUCAACUAUGACACGCAAAACGCGUGCUCCGUUGAAUGGAGUUUAUCAUG

Variants of B1 are the subject of the data set. As to the kind of experiment: polymerase ribozyme fitness, log enrichment relative to wild type (log ratio); higher = more active; in vitro selection for triplet polymerase activity. The method, boiled down:
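Each subunit of a heterodimeric triplet polymerase ribozyme was represented by a PCR-built, transcribed mutant library that underwent triplicate single-round in vitro selection with frozen incubation at −7 °C. Extended constructs were recovered by gel excision, streptavidin-bead capture and RT-PCR, and Illumina sequencing of input and output libraries kept genotypes with ≥10 input reads and ≥1 read per output. Fitness is the logarithm of genotype enrichment relative to wild-type enrichment, from inverse-variance-weighted replicate averages, with a logarithm base of 2.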
Take GGAUCUUCUCGAUCUAACAAAAAAGACAAAUCUGCCACAAAGCUUGAGUGCAUCUUCGGAUGCAGAGGCGGCGGCCUUCGGUGGCGCGAUAGCGCCAACGUUCUCAACUAUGACACGCAAAACGCGUGCUCCGUUGAAUGGAGUUUAUCAUG [A49U A73G]: the “polymerase ribozyme fitness (log ratio)” value is -2.09. For the variant GGAUCUUCUCGAUCUAACGAAAAAGACAAAUCUGCCACAAAGCUUGAGAGCAUCUUCGGAUGCAGAGGCGGCAGCCUUCGGUGGCGCGAUAGCGCCAACGUUCUCAACUAUGACACGCAAAACGCGUGCUCCGUUGAAUGGAGUUUAUCAUG [A19G], the “polymerase ribozyme fitness (log ratio)” value was -0.472. For the variant GGAUCUUCUCGAUCUAACAAAAAAGAGAAAUCAGCCACAAAGCUUGAGAGCAUCAUCGGAUGCAGAGGCGGCAGCCUUCGGUGGCGAGAUAGCGCCACCGUUCGCAACUAUGACACGCAAAACGCGUGCUCCGUUGAAUGGAGUUUAACAUG [C27G U33A U55A C87A A98C U104G U148A], the “polymerase ribozyme fitness (log ratio)” value was no more than -4.2.

Regarding GGCUCUUCUCGAUCUAACUAAAAAGACAAAUCUGCCACAAAGCUUGAGAGCAUCUUGGGAUGCAGAGGCGGCAGCCUUCGGUGGCGCGAUAGCACCAACGUUCUCAACUAUGACACGCAAAACGCGUGCUCCGUUGAAUGAAGUUUAUCAUG [A3C A19U C57G G94A G141A], the “polymerase ribozyme fitness (log ratio)” value is -2.02. In the case of GGAUCUUCUCGAUCUAACAAAAAAGACACAUCUGCCACAAAGCUUGAGAGCAUUUUCGGAUGCAGAGGCGGCAGCCUUCGGUGACGCGAUAGCGCCUACGUUCUCAACUAUGACACGCAAAACGCGUGCUCCGUUGAAUGGAGUUUAUCAUG [A29C C54U G84A A97U], the “polymerase ribozyme fitness (log ratio)” value is no more than -4.2. Regarding GGAUCUUCUCGAUCUAACACAAAAGACAAAUCUGCCACAAAGCUUGAGAGCAUCUUCGGAUGCAGAGGCGGCAGCCUUCAGAGGCGCGAUAGUGCCACCGUUCUCAACUAUGACACGCAAAACGCGUGCUCCGUUGAAUGGAGUUUAUCAUG [A20C G80A U82A C93U A98C], the “polymerase ribozyme fitness (log ratio)” value was -2.56. Turning to GGAUCCUCUCGAUCUAACAAAUAAGACAAAGCUGCCACAAAGCUUGAGAGCAUCUUCGGAUGCAGAGGCGGCAGCCUUCGGUGGCGCGAUAGAGCCAACGUUCUCAACUAUGAGACGCAAAACGCGUGCUCCGUUGAAUGGAGUUUAUCAUG [U6C A22U U31G C93A C114G], the “polymerase ribozyme fitness (log ratio)” value is no more than -4.2. Take GGAUCUUCUCGAUCUAACAAAAAAGACAAAACUGCCACAAAGCUUGAGAGCAUCUUCGGAUGCAGAGGCGGCAGCCUUCGGUGGCGCGAUAGCGCCAACGUUCUCAACUAUGACACGCAAAACGCGUGCUCCGUUGAAUGGAAUUUAUCAUG [U31A G143A]: the “polymerase ribozyme fitness (log ratio)” value was -0.454.

For the variant GGAUCUUCUCGAUCUAACAAAAAAGACAAAUCCGCCCCAAAGCUUGAGAGCAUCUUCGGAUGCUGAGGCGGCAGCCUUCGGUGGCGCGAUAGCGCCAACGUUCUCAACUAUGACACGCAAAACGCGUGCUCCGUUGAAUGGAGUUUAUCAUG [U33C A37C A64U], the “polymerase ribozyme fitness (log ratio)” value was no more than -4.2.

Consider GGAUCUUCUCGAUCUAACAAAAAAGACAAAUCUGCCACAAAGCUUGAGAGCAUCUUCGGAUGCAGAGGCGGCAGCCUUCGGUGGCGCGAUAGGGCCAACGUUCUAAACUAUGACACGCAAAACGCGUGCUCCGUAGAAUGGAGUUUAUCAUG [C93G C105A U135A], for which the “polymerase ribozyme fitness (log ratio)” value was no more than -4.2. Consider GGAUCUUCUCGAUCUACCAAAAAAGACAAAUCUGCCACAAAGCUUGAGAGCAUCUUCGGAUGCAGAGGCGGCAGCCUUCGGUGGGGCGAUAGCGCCAACGUUCUCAACUAUGACACGCAAAACGCGUGCUCCGUUGAAUGGAGUUUAUGAUG [A17C C85G C149G], for which the “polymerase ribozyme fitness (log ratio)” value was no more than -4.2. As for GGAUCUUCUCGAUCUAACAAAAAAGAUAAAUCUGCCACAAAGCUUGAGAGCAACUUCGGAUGCAGAGGCGGCAGCCUUCGGUGGCGCGAUAGCGCCAACGUUCUCAACUAUGACACGCAAAACGCGUGCUCCGUUGAAUGGAGUUUAUCAUG [C27U U53A], the “polymerase ribozyme fitness (log ratio)” value is -2.76. On to GGAUAUUCUCGAUCUAACAAAAAAGACAAAUCUGCCACAAAGCUUGAGAGCAUCUUCGGAUGCAGAGGCGGCAGCCUUCGGUGGCGCGAUUGCGCCAACGUUCUCAACUAUGACACGCAAAACGCGUGCUCCGUUGAAUGGAGUUUAUCAUG [C5A A91U], for which the “polymerase ribozyme fitness (log ratio)” value is -4.1. In the case of GGAUCUUCUCGAUCUAACAAAAAAGACAAAUCUGCCACAAAGCUUGAGAGCAUCUUCGGAUGCAGUGGCGGCAGCCUUCGGUGGUGCGAUAGCGCCAACGUCCUCAGCUAUGACACGCAAAACGCGUGCUCCGUUGAAUGGACUUUAUCAUG [A66U C85U U102C A107G G143C], the “polymerase ribozyme fitness (log ratio)” value is no more than -4.2.

On to GGAUCUUCUCGAUCUAGCAAAAAAGACAAAUCUGCCACGAAGCUUGAGAGCAUCUUCGGAUGCAGAGGCGGCAGCCUUGGGUGGCGCGUUAGCGCGAACGUUCUCAACUAUGACACGCAAAACGCGUGCUCCGUUGAAUGGAGUUUAUCAUG [A17G A39G C79G A89U C96G], for which the “polymerase ribozyme fitness (log ratio)” value was -4.19. Consider GGAUCUUCUCGAUCUAACAAAAAAGACAAAUCUGCCACAAAGCUUGAGAGCAUCUUCGGAUGCAGAGGCGGCAGCCUUGGGUGGCGCGAUAGCGCUAACGUUCUCAACUAUGACACGCAAAACGCGUGCUCCGUUGAAUGGAGUUUAUCAUG [C79G C96U], for which the “polymerase ribozyme fitness (log ratio)” value was -3.8. For GGAUCUUCUCGAUCUAACAAAAAAGAAAAAUCUGCCACAAAGCUUGAGAGCAUCUUCGGAUGCAGAGGCGGCAGCCUUCGGUGGCGCGAUAGCGCCAACGUUCUCAGCUAUGACACGCAAAACGCGUGCUCCGUUGAAUGGAGUUUAUCAUG [C27A A107G] the value was no more than -4.2. For the variant GGAUCUUCUCGAUCUAACAAAAAAGACAAAUCUGCUACAAAGCUUGAGAGCAUCUACGGAUGCAGAGGCGGCAGCCUUGGGUGGCGCGAGAGCGCCAACGUUCUCGACUAUGACACGCAAAACGUGUGCUCCGUUGAAUGGAGUUUAUCAUG [C36U U56A C79G U90G A106G C125U], the “polymerase ribozyme fitness (log ratio)” value is no more than -4.2. For GGAUCUUCUCGAUCUAACAAAAAAGACAAACCUGCCACAAAGCUUGAGAGCAUCUUCGGAUGCAGAGGCGGCAGCCUUCGCUGGUGCGAUAGCGCCAAGGUUCUCAACUAUGACACGCAAAACGCGUGCUCCGUUGAAUGGAGUUUAUCAUG [U31C G81C C85U C99G] the value was -0.592.
